Patent EP1086956B1

Molecular target: soluble human VEGF receptor Flt-1 3N (human) (UniProt P17948)
Test: sandwich ELISA, KM1732 coated at 10 µg/ml, detection with biotin-labeled KM1730

Chain of UniProt P17948 (P17948 27-338 limits assumed): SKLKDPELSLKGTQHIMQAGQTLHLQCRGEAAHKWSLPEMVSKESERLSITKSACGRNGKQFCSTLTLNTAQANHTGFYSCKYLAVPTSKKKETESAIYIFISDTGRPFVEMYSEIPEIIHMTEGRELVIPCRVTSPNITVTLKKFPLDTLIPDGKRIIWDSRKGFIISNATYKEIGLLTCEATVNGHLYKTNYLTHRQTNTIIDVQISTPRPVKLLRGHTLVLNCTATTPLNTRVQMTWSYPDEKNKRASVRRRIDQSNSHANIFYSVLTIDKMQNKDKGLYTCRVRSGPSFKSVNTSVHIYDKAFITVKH

minimum measurable concentration: 0.46 ng/mL
B1: anti-human VEGF receptor Flt-1 mouse monoclonal antibody KM1732 (antibody, from another filing, mouse IgG1, V domains shown)
VH: QGQMQQSGAELVKPGASVKLSCKPSGFTFSSNYISWLKQKPGQSLEWIAWIYAGTGDASYNQKFTAKAHVTVDTSSSTAYMQLSSLTTEDSAIYYCARHGGDGYWFAYWGQGTLVTVSA
VL: QLVLTQSPAIMSASQGEKVTMTCSASSSVSYMHWYQQKSGTSPKRWIYDTSKLPSGVPARFSGSGSGTSYSLTISSMEAEDAATYYCQQWSSNPPTFGAGTKLELK
